Reference: patent US20080090755A1

Key:
activin = assay: cell-based or functional assay
[1] = target: growth/differentiation factor-8 (GDF-8) (UniProt O14793); assay: cell-based or functional assay
Sequence of UniProt O14793 (O14793 267-375 limits assumed): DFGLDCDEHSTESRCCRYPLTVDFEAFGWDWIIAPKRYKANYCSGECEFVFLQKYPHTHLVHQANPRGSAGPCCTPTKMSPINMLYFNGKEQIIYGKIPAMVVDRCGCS

For follistatin, which inhibition of elevation in standardized luciferase activity due to activin ((CAGA)12-MLP-Luc reporter assay, HEK293 cells) (activin) is on record?
The inhibition of elevation in standardized luciferase activity due to activin ((CAGA)12-MLP-Luc reporter assay, HEK293 cells) was 100%.

And the inhibition of elevation in standardized luciferase activity due to GDF-8 ((CAGA)12-MLP-Luc reporter assay, HEK293 cells) [1]?
Its inhibition of elevation in standardized luciferase activity due to GDF-8 ((CAGA)12-MLP-Luc reporter assay, HEK293 cells) is 100%.
